Assay results from publication PMC11979002.

Molecular target: HLA-DQ2.2 (DQA1*02:01/DQB1*02:02) with the covalently linked glutL1 peptide
Test: SPR; Biacore T200; biotinylated HLA-DQ2 molecules immobilised on a streptavidin chip (about 3000 RU), biotinylated HLA-DQ8glia-α1 in the reference cell; serial dilutions of TCR flowed at 10 μl/min in 20 mM HEPES pH 7.5, 150 mM NaCl, 1 mM EDTA, 0.005% TWEEN 20; steady-state KD, 1:1 (single ligand) binding model

| Substance | Kd [µM] |
| --- | --- |
| G9 TCR, β-chain R75A | 10.2 |
| G9 TCR, β-chain S58A | 7.8 |
